Experimental data reported in the DeepSol protein solubility set.

test: soluble on expression in E. coli; label from the status in PepcDB or PDB records

| Sequence | soluble on expression in E. coli |
| --- | --- |
| MSETKERLCIYADFPYEFAVCAPRTDCPKREQCLRASAYDGVLARGLQKITVINPLIPTSEQGCKAFADNTPVLFAHGITHLYDELPHHAVQSLKHRLLTYFGKTTYYRIYRKERYITIQEQDYIRDSFVRAGFSSDLIRYDAMVYMYELQSAMVKSD | not soluble |
| HMDPDELPLDEHCERLPYDASKWEFPRDRLNLGKPLGRGAFGQVIEADAFGIDKTATCRTVAVKMLKEGATHSEHRALMSELKILIHIGHHLNVVNLLGACTKPGGPLMVIVEFCKFGNLSTYLRSKRNEFVPYKTPEDLYKDFLTLEHLICYSFQVAKGMEFLASRKCIHRDLAARNILLSEKNVVKICDFGLARDIYKDPDYVRKGDARLPLKWMAPETIFDRVYTIQSDVWSFGVLLWEIFSLGASPYPGVKIDEEFCRRLKEGTRMRAPDYTTPEMYQTMLDCWHGEPSQRPTFSELVEHLGNLLQANAQQD | soluble |
| MGSDKIHHHHHHMKTYMISLHGAYENENFGDELLIAIQAKWINDEGYDVCLPFASKVYREQIPSLDKEGSRGLEESEKLIYTGGGYFGEPNHKTFKWGINFFRKKHHIPAKIFKKNNKKYLICGVGAGPITNPITRYTVVKICNFAEKVVVRDTTSYDYLIKYGVIPEKIQVGADVVLSLTIHDLPKGSIEKAKKTLNKDNKNFYLGIHIGVSPDDENYKTNVKAAMESLANVIKRNSVVPVLIADKRNATSTQEKAIEYMSSLLDEEPIVYRHSNIWETCAFLSSLDGVVTTKLHVGITAYTLGTRTFGIAAHQKTRRFYNQIKKENYFYELKEVDNGIESSLELFIKDRYWDEETLQAKKELNERALLCKREMLQFLES | not soluble |
| MKGFGMFRFRRTFVPQIDMRNCGVAALASVAKYYGSDYSLAHLRELAKTNKEGTTALGLVEAAKKIGFETRAIKAEMSLFEMEDVPYPFIAHVNKDGKLQHYYVIYKSTKDYLIIGDPDPSVKVTKMTKERFEKEWTGVTLFMGPEPS | not soluble |
| AKTAAALHILVKEEKLALDLLEQIKNGADFGKLAKKHSICPSGKRGGDLGEFRQGQMVPAFDKVVFSCPVLEPTGPLHTQFGYHIIKVLYRN | soluble |
| GPGSMLRFTHRALTATPERFSVLGTTHPKPKRTGFGRNNKMRSKPSDNVAWYDKGPVEWLPRPVRLTYDHLDQLQQWMMRATLDGRTEEFNRIRDLHREWSQHPLMPVLGDVEPKFPLNLFKQNHRAKKRFLVRWHKANTPANWLWMPRGPTVVTPLHRTNPTQYPENWKQMVQRKSGTGTPS | not soluble |
| MGSSHHHHHHSSGENLYFQGHMNVLVIGRGGREHAIAWKAAQSPLVGKLYVAPGNPGIADVAELVHIDELDIEALVQFAKQQAIDLTIVGPEAPLASGIVDRFMAEGLRIFGPSQRAALIEGSKAFAKELMKKYGIPTADHAAFTSYEEAKAYIEQKGAPIVIKADGLAAGKGVTVAQTVEEALAAAKAALVDGQFGTAGSQVVIEEYLEGEEFSFMAFVNGEKVYPLAIAQDHKRAYDGDEGPNTGGMGAYSPVPQISDEMMDAALEAILRPAAKALAAEGRPFLGVLYAGLMATANGPKVIEFNARFGDPEAQVVLPRLKTDLVEAVLAVMDGKELELEWTDEAVLGVVLAAKGYPGAYERGAEIRGLDRISPDALLFHAGTKREGGAWYTNGGRVLLLAAKGETLAKAKEKAYEQLAAIDCDGLFYRRDIGRRAIERASAAYTRMKGR | soluble |
| MVARNDNLKPFSERSVDEARELGRKGGKASGEVRRKKADLKRAISIVLSSEVPSSKMAKTLKEMGYENTNEMAMVLSMTQKAIKGDVKAASWISNIIQPAKVEHEVEMSVGVDEKRKVAEEYIRGLFNNDTGNSTEENN | not soluble |
| MSSKPLLTLQELAAQNILRNEALAISALQYLPELFLPQLLKQAYDGNHLKVLRAIVSSWPFPRLPLGALKKRTPYLETQLQVVLEEVDKLLIQEVHPREYKLEVLDLRSVGQNYLNVWPGAMDDWLPKTTQTDPCCSKTVMTQPLKVLVDLQLNNRGQSRLFSYLVQWSDRRKGLLQLYCNKLQIWSPSQQNYRKLSQKVNLDYVETLGLHSSCSPSFLLNFAPYLRQMRNLRKLALSNIREEHIISPEKRRCIITRFTLQILKLESLQKLHLDAVCFLEGHLDQLLGSVKTSLDELAVTHCNLSVSEWSHFSEFPCVSQLQQLNLENVRLTGLSPEPLQVLLVKAGPTLVALDLEDCHLEDGQLYAILPALSKCFKLTKFSFYGNQISMLAMKDLLHHTASLIHLRLELYPVPQDSYDYHGTPLMQRMQQHCDELMNLLKTFRNPGRVFFGTDRCDQCCNRYIYNKTIMCNCRRSY | not soluble |
| MQKAVVMDEQAIRRALTRIAHEIIERNKGIDGCVLVGIKTRGIYLARRLAERIEQIEGASVPVGELDITLYRDDLTVKTDDHEPLVKGTNVPFPVTERNVILVDDVLFTGRTVRAAMDAVMDLGRPARIQLAVLVDRGHRELPIRADFVGKNVPTSRSELIVVELSEVDGIDQVSIHEK | soluble |
| MRGSHHHHHHTDPALRASSNTFTLGTKSVNRLGYGAMQLAGPGVFGPPRDRHVAITVLREALALGVNHIDTSDFYGPHVTNQIIREALYPYSDDLTIVTKIGARRGEDASWLPAFSPAELQKAVHDNLRNLGLDVLDVVNLRVMMGDGHGPAEGSIEASLTVLAEMQQQGLVKHIGLSNVTPTQVAEARKIAEIVCVQNEYNIAHRADDAMIDALAHDGIAYVPFFPLGGFTPLQSSTLSDVAASLGATPMQVALAWLLQRSPNILLIPGTSSVAHLRENMAAEKLHLSEEVLSTLDGISREGLCGR | soluble |
| MGSDKIHHHHHHMLIEIPNVFSKQEVNQLREQLDARTWIDGNQTSGMMASTRKRNQQLDKDDPVALQIGELIMARLLAHPLFVSAALPLQFYPPLFNRYQGGDTFGYHIDNAIRSTSDGMVRTDLSATLFLSELNAYEGGELVIQDTYGQQSIKLAAGSLVLYPSTSLHQVTPVTSGERTSAFMWLQSMVRDEGQRRLLFQLDQSIQTLTAQQAAEQELFNLTGVYHNLLRRWSEL | not soluble |
| MKIESAVEISKTATDFHTALDASSVIGSDRVDQLKSILNLTKSDTALLESNITQAKQLKITLDAQLQQRKALVDEYKSKLTVLEGSYMRKSAEVQRLQNELQNAQKAHAMKATTAPNEKNQANCSIS | not soluble |
| MGLRDRFSNYLFKKAEKRGYLDNVLGKSIRYSGVYVTDSNILQSSDVYELLQDISNQMVLADIVVEDEFGNEIKDDIALQILRNPNNYLTQSEFIKLMTNTYLLEGETFPILNGAQIHLASNVFTELDDNLVEHFNIGGHEIPPCMIRHVKNIGADHLRGKGILDLGRDTLEGVMSAEKTLTDKYKKGGLLTFLLNLDAHINPQNGAQSKLINAILDQLESIDEARSVKMIPLGKGYSIDTLKSPLDDEKTLAYLNVYKKDLGKFLGINVDTYTELIKEDIEKAMMYIHNKAVRPIMKNFEDHLSLLFYAQNSGKRIKFKINILDFVTYSNKTNIGYNLVRTAITSPDNVADMLGFPKQNTKESQAIYISNDVTEIGKKEATDGSLGGGEENEN | not soluble |
| MSFKEIKAEDLQFNPFTRIGSDWMLITAGDEKKFNTMTASWGGAGVFWGKNVVTCYIRPQRYTKEFVDANDTFTLSFYGPECKNALNLCGTVSGRDRDKISEAGLTPYFTEGTAAFEEANLIFVCRKIYQDDMPYENFIAKENDAKYYPNKDYHTMYIAEIVKILVAE | not soluble |
| MGSDKIHHHHHHVTYGDNVKPINDALLTEFPKEKRYLVYDKKFVKNPEAWSAEYALPYRRLRFIRLAYLLATSKHLFIDNYIGEYSVAPIRQGTKRIQLWHAAGTLKKFGLTSSRSLMVPKHVLRRFKRVYQRYGDFIVPGEACAKQFMAPHDLHRTVFKTLGVPRTDYWFNEQHQTVKKQLSDIYVKPKRRILLYAPTYREYNGMEGQTVRQLEQLTDQGWTILVKLHPTVRSMFTHQKAHVHFVTDEYSINDYLLITDVLVTDYSSIPFESCLLGVPTVLYTPDIDTYRQIPGIIDSYPDPLPVTCTDQFEIMLNWINSDVSLQESRMAMEQFKTIWYTEQPGQATRRIVDHYYRKVR | not soluble |
| MQGDAAEKARLRGERLAARDALTPAERQQKSLSMTAHGVSGIPFAPGTVISGFMPIRSEVDTRPLMEALRARDGRLVLPVVLDQETIVFRVFEADTPLVKTGFGTTGPGEDAEVLDPHILLVPLSVFDGEGQRIGYGAGHYDRAIARLHAKGRQPVLIGIAFDCQEVASVPAEPHDVALHAVLTESGLRWFSAQRLEHHHHHH | not soluble |
| LTLPGIANLRRLRVDDVAIPKVEIVAVPVDIGKEDLVAVFREHGFSRLPVYRETLDQPLGLVLLKDLALQHGFNGNGSFDLKTLLRPLLYAPPSMPIGVLLQKMQRERVHMALVIDEYGGVDGLVTIEDLIETVIGEIEDEHDEVEGPLWTLEKPGVYMAQSRTPLDEFEAEIGLRLRREEEDEEIDTLGGLV | not soluble |
| VPITPLLHESVARFAATGADITTRAEPDLFVSIDPDHLRRILTAVLDNAITHGDGEIAVTAHARDGAVDIGVRDHGPGFADHFLPVAFDRFTRADTARGGRGSGLGLAIVAALTTTHGGHANATNHPDGGAELRITLPTPRPPFHEELPRITSSDTKDPNREHDTSDQ | not soluble |
| MFNGEKVTLLEMLDAREQRAATQKELLETAPEASLLSATMNIPGEVKNSPTLTAVFLEVIDEVEQQLLDQVPIVNFYRNEKTGPEYYLAVSLAPQELKQRMVKIEETHPYGRLVDLDVLWGNEELKSLHRGDLGLPPRRCFICQEVAKVCGRNRRHSLEAMQEKITEIILTRKEQPSE | not soluble |
| SKILVFGHQNPDSDAIGSSMAYAYLKRQLGVDAQAVALGNPNEETAFVLDYFGIQAPPVVKSAQAEGAKQVILTDHNEFQQSIADIREVEVVEVVDHHRVANFETANPLYMRLEPVGSASSIVYRLYKENGVAIPKEIAGVMLSGLISDTLLLKSPTTHASDPAVAEDLAKIAGVDLQEYGLAMLKAGTNLASKTAAQLVDIDAKTFELNGSQVRVAQVNTVDINEVLERQNEIEEAIKASQAANGYSDFVLMITDILNSNSEILALGNNTDKVEAAFNFTLKNNHAFLAGAVSRKKQVVPQLTESFNG | soluble |
| MGSDKIHHHHHHMKVSGGEVPPFFKEGFFFTSEELTHLINVCSSTSAIISVLKDSKYRRSLVLYLKRPLSKDALLLIQTLLTTLEREDLSFGVKELEYMAYHDPLTGLPNRRYFFELGNRYLDLAKREGKKVFVLFVDLAGFKAINDTYGHLSGDEVLKTVSKRILDRVRRSDVVARYGGDEFTILLYDMKEEYLKSLLERILSTFREPVRVENKHLSVTPNIGVARFPEDGENLEELLKVADMRMYKAKEMKVPYFSLS | not soluble |
| MSLIYGFIRDHSNEFAVEKMCQVLNVSRSGYYSWLNRKPGKRELTNKKLKLKIAEIYWQTRGRCGSPRIHKQLKKEGYHYNIKRIERLMRIMGLKAIQKRKFKRTTNSDNNLPLKNNLLKRNFSVTQPDKVWVSDITYIPTKEGWLYLSVVIDLYSRKVVGWSMDNHMTKRLVIDALEMAVLNRNPSRGLIFHSDRGSQYASHDFQKTLWKYGIISSMSRKGDCWDNAVAESFFATLKTELIFHNKYQSRAQAKRDIFEYIEIFYNRIRLHSSLDYKSPEDYEKERKTSKEGHHHHHH | not soluble |
| MSITLITAAPGAGKTIFAVWNIIKPAVEADRVVYTAGIPELKLPAISLSYSQVKRWADRELVEVENPSGIPIPDDEKPSRLQNITEGALIVIDEVQYLWPASGSREPGEDIKYLTKHRHHGLEFVLITQAPQLIHKNVLAVVDKHIHMLSDWHGRKRYEWPEYCATVRATSSKLKAVSQRYELPKEAYGLYRSASMHI | not soluble |
| MANLKRYNDGLFKLDLWIRRLLTIGESNELYTALCDGVCDIVGAGTAVFTTIDMQAGTLTYMAASGGWNAMVKGLAVPMKSGNLCASVAACGTPLRIDQISSRTDSCELLQVMDMDAAVLVPVLEEGRVTACLSAFRVGNPFDQIDEQLLQQYAHTASMVLRTVRLMVDLR | not soluble |
